From paper PMC7502788

Tests used:
Assay in all cases: BLI
[1] = biological target: TBTI_13C3x8D3 LC_Y49A_mIgG1 (mouse)
[2] = biological target: TBTI_13C3x8D3 LC_G68I_mIgG1 (mouse)
[3] = biological target: TBTI_13C3x8D3_HC_Y52A-S101A/LC_Y49A-Y92A-mIgG1 (mouse)
[4] = biological target: TBTI_13C3x8D3 HC_T100A_mIgG1 (mouse)
[5] = biological target: TBTI_13C3x8D3_HC_N31A/LC_Y92A_mIgG1 (mouse)
[6] = biological target: TBTI_13C3x8D3 LC_N93A_mIgG1 (mouse)
[7] = biological target: TBTI_13C3x8D3 HC_N31A_mIgG1 (mouse)
[8] = biological target: TBTI_13C3x8D3 HC_Y52A_mIgG1 (mouse)
[9] = biological target: TBTI_13C3x8D3 LC_N31A_mIgG1 (mouse)
Anti-mTfRC 8D3 (mouse) = biological target: Anti-mTfRC 8D3 (mouse)
[10] = biological target: TBTI_13C3x8D3 HC_Y53A_mIgG1 (mouse)
[11] = biological target: TBTI_13C3x8D3_mIgG1 (mouse)
[12] = biological target: TBTI_13C3x8D3 LC_Y92A_mIgG1 (mouse)
[13] = biological target: TBTI_13C3x8D3_HC_Y52A/LC_Y92A_mIgG1 (mouse)
[14] = biological target: TBTI_13C3x8D3_HC_S101A/LC_Y92A_mIgG1 (mouse)
[15] = biological target: TBTI_8D3x13C3_mIgG1 (mouse)
[16] = biological target: TBTI_13C3x8D3 HC_S101A_mIgG1 (mouse)
[17] = biological target: TBTI_13C3x8D3_HC_Y52A/LC_Y49A_mIgG1 (mouse)

mouse transferrin receptor protein (mTfR), Sino Biological 50741-M07H (from UniProt Q62351 89-763)
Kd [1]: 4.46 nM | koff [1]: 9.9e-05 s⁻¹ | kon [1]: 22100 M⁻¹ s⁻¹ | Kd [2]: 3.84 nM | koff [2]: 0.000105 s⁻¹ | kon [2]: 27200 M⁻¹ s⁻¹ | Kd [3]: 19.6 nM | koff [3]: 0.00111 s⁻¹ | kon [3]: 32600 M⁻¹ s⁻¹ | Kd [4]: 3.83 nM | koff [4]: 0.000233 s⁻¹ | kon [4]: 60800 M⁻¹ s⁻¹ | koff [5]: 0.000553 s⁻¹ | kon [5]: 62100 M⁻¹ s⁻¹ | Kd [6]: 4.16 nM | koff [6]: 0.000112 s⁻¹ | kon [6]: 27100 M⁻¹ s⁻¹ | Kd [7]: 6.61 nM | koff [7]: 0.000159 s⁻¹ | Kd [8]: 17.9 nM | koff [8]: 0.000521 s⁻¹ | kon [8]: 29200 M⁻¹ s⁻¹ | Kd [9]: 2.18 nM | koff [9]: 5.4e-05 s⁻¹ | Kd (Anti-mTfRC 8D3 (mouse)): 0.54 nM | koff (Anti-mTfRC 8D3 (mouse)): 3.9e-05 s⁻¹ | kon (Anti-mTfRC 8D3 (mouse)): 71300 M⁻¹ s⁻¹ | Kd [10]: 4.25 nM | koff [10]: 0.000124 s⁻¹ | kon [10]: 29200 M⁻¹ s⁻¹ | Kd [11]: 2.83 nM | koff [11]: 9.9e-05 s⁻¹ | kon [11]: 35300 M⁻¹ s⁻¹ | Kd [12]: 6.88 nM | koff [12]: 0.000149 s⁻¹ | kon [12]: 21700 M⁻¹ s⁻¹ | Kd [13]: 29.2 nM | koff [13]: 0.000734 s⁻¹ | kon [13]: 25200 M⁻¹ s⁻¹ | Kd [14]: 6.94 nM | koff [14]: 0.000357 s⁻¹ | kon [14]: 51400 M⁻¹ s⁻¹ | Kd [15]: 0.4 nM | koff [15]: 2.9e-05 s⁻¹ | kon [15]: 74400 M⁻¹ s⁻¹ | Kd [16]: 8.96 nM | koff [16]: 0.000258 s⁻¹ | kon [16]: 28800 M⁻¹ s⁻¹ | koff [17]: 0.000689 s⁻¹ | kon [17]: 793000 M⁻¹ s⁻¹
